Common to all, as to experiment: SPR
(In SPR one partner is held on a chip, and binding of the other changes the refractive index at the surface.)

One experiment addresses MEDI4212 aFuc (human).
In experiment [1] the target is MEDI4212 3M (S239D/A330L/I332E) (human).
For experiment [2], the target named is MEDI4212 2M2 (S239D/I332E) (human).
In experiment [3] the target is MEDI4212 wild-type (WT) monoclonal antibody (human).

The results in this text go back to PMC4856805.

As usually defined, the Kd is the concentration at which binding is half-saturated. Higher therefore signals weaker binding.

As for “Flag-tagged hFcγRIIIa (158F) (from UniProt P08637 17-254) (receptor)”, the equilibrium dissociation constant (Kd) was found to be 389 nM with MEDI4212 aFuc (human), 36 nM in experiment [1], 67 nM in experiment [2] and 4960 nM in experiment [3].

Regarding Flag-tagged hFcγRIIIa (158V) (receptor), the Kd in the experiment with MEDI4212 aFuc (human) was found to be 50 nM; in experiment [1] it was 7 nM; in experiment [2], 7 nM; in experiment [3] it was 502 nM.
